# Legend:
# [1] = target: Lactoferrin from human neutrophils (human); experiment: SPR
# [2] = target: CRD from SRCL (UniProt Q5KU26); experiment: radioligand binding
# UniProt Q5KU26, sequence (Q5KU26 whole entry): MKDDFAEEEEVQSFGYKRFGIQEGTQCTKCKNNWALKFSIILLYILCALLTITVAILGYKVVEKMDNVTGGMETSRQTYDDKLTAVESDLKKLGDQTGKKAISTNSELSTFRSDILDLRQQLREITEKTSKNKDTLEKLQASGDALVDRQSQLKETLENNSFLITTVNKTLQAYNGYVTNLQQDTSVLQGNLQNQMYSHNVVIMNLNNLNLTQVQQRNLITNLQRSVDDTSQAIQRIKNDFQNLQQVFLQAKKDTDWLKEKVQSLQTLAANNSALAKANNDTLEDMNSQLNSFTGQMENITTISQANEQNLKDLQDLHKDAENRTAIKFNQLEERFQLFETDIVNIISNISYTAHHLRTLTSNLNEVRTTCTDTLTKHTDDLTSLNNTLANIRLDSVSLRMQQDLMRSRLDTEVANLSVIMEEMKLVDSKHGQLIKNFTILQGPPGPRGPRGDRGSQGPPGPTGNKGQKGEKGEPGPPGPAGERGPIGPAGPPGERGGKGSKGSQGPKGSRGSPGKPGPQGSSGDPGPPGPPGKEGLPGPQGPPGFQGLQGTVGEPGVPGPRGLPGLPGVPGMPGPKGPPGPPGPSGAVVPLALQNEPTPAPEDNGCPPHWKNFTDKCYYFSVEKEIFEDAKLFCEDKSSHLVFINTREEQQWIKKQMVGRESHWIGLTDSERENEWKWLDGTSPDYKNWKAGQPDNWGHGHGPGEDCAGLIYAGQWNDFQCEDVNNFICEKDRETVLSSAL
Kd [1] [µM],Ki [2] [µM],Substance
4.7,–,CRD from SRCL (from UniProt Q5KU26 1-742) (domain or fragment)
–,6.1,Lactoferrin from human neutrophils (natural protein)

# Source: paper PMC3129213
